Experimental data from patent US20220025373, “COMPOSITIONS AND METHODS RELATED TO NUCLEIC ACID ANTICOAGULANTS” (North Carolina State University, published 2022).

B1: 2HF-RNA-1N2N (ssRNA)
RNA: GGGAGAUCGAGCGACUUCCGACGGGAACAAAGCUGAAGUACUUACCCGUCGGGAGUCGGGCUAGUCAUCUUCGGAUGAUUAGCCGCUGGUGAAGCCUCCACGCCAGCCUCGGUCUCCCGCAGUAGGAUCGGACUGAAGGAGGCACGGUCCCAGCCGAAGUGUCUGGCGGUCGAUCACACAGUUCAAACGUAAUAAGCCAAUGUACGAGGCAGACGACUCGCCAGGCACUUUGGCUGCUAGACUGGCUGGCUUCGGCCAGCUAGUUUAGGAUUCUAUUGC
modifications: 2'-F at all C and U
B2: 2HF-RNA-2NN1 (ssRNA)
RNA: GGGAGAUCGAGCGACUUCCGACUUCGGUCGGGAGUCGGGCUAGUCAUCUUCGGAUGAUUAGCCGCUGGUGAAGCCUCCACGCCAGCCUCGGUCUCCCGCAGUAGGAUCGGACUGAAGGAGGCACGGUCCCAGCCGAAGUGUCUUGCGGGAACAAAGCUGAAGUACUUACCCGCAAGGCACUUUGGCUGCUAGACUGGCUGGCGGCGGUCGAUCACACAGUUCAAACGUAAUAAGCCAAUGUACGAGGCAGACGACUCGCCGCCAGCUAGUUUAGGAUUCUAUUGC
modifications: 2'-F at all C and U
B3: 2HF-RNA-12NN (ssRNA)
RNA: GGGAGAUCGAGCGACUUCCGACUUCGGUCGGGAGUCGGGCUAGUCAUCGGGAACAAAGCUGAAGUACUUACCCGAUGAUUAGCCGCUGGUGAAGCCUCCACGCCAGCCUCGGUCUCCCGCAGUAGGAUCGGACUGAAGGAGGCACGGUCCCAGCCGAAGUGUCUGGCGGUCGAUCACACAGUUCAAACGUAAUAAGCCAAUGUACGAGGCAGACGACUCGCCAGGCACUUUGGCUGCUAGACUGGCUGGCUUCGGCCAGCUAGUUUAGGAUUCUAUUGC
modifications: 2'-F at all C and U
B4: Fss12 (ssRNA)
RNA: GGGAACAAAGCUGAAGUACUUACCCACCUUACCACUCCACCUCACUCACCUAUUACGGCGGUCGAUCACACAGUUCAAACGUAAUAAGCCAAUGUACGAGGCAGACGACUCGCC
modifications: 2'-F at all C and U
B5: 2HF-RNA-NNNN (ssRNA)
RNA: GGGAGAUCGAGCGACUUCCGACUUCGGUCGGGAGUCGGGCUAGUCAUCUUCGGAUGAUUAGCCGCUGGUGAAGCCUCCACGCCAGCCUCGGUCUCCCGCAGUAGGAUCGGACUGAAGGAGGCACGGUCCCAGCCGAAGUGUCUUGCUUCGGCAAGGCACUUUGGCUGCUAGACUGGCUGGCUUCGGCCAGCUAGUUUAGGAUUCUAUUGC
modifications: 2'-F at all C and U

Key:
Factor IXa [1] = target: T1, Factor IXa (UniProt P00740;P00740 P00740:47-191,P00740:227-461); test: EMSA; 37 C 1 h
T1 sequence (P00740 47-191, chain 1 of 2): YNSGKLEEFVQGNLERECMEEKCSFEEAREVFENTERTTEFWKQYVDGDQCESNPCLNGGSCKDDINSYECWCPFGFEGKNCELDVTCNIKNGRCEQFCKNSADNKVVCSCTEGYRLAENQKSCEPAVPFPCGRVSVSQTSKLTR
T1 sequence (P00740 227-461, chain 2 of 2): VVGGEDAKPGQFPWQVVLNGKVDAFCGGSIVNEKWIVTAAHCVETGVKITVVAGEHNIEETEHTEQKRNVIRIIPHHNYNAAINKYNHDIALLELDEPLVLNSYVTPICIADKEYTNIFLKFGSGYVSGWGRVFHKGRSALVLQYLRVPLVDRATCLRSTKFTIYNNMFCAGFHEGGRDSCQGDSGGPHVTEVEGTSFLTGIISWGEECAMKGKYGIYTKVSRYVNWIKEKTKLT
Protocol: (§1) Specificity tests of the Th-RNA origami with two proteins (Factor IXa and Xa) involved in the coagulation cascade and one common protein (bovine serum albumin, BSA) were performed. To test specificity, the RNA origami was incubated with protein at 37° C. for one hour and characterized by native acrylamide gel electrophoresis. The non-aptamer presenting on RNA origami (2HF-RNA-NNNN) was not able to bind to all four proteins (FIG. 25). All seven designs of RNA origami with RNA thrombin aptamers (2HF-RNA-12NN, 1N2N, 2NN1, Fss12, 2HF-2211, 3HF-2NN1, and 4HF-2NN1) show the specificity binding with thrombin as results shown in FIGS. 26-28 and FIGS. 42-45).
(§2) For specificity tests, heat-annealed RNA origami or DNA weave tile (5 pmol) was dissolved in 1× annealing buffer and incubated with protein (25 pmol) at 37° C. for 1 hr. The samples were tested by 6% native acrylamide gel electrophoresis in 1×TBE as running buffer at 150 V for 3 hr. The gels were stained with Ethidium bromide for nucleic acid staining and visualized under a UV lamp. Then, the gels were further stained with Coomassie blue for protein staining and imaged with the ProteinSimple instrument.

[2] = target: T2, Bovine serum albumin (BSA) (Bos taurus, UniProt P02769 P02769:25-607); test: EMSA; 37 C 1 h
T2 sequence (P02769 25-607, one chain of several): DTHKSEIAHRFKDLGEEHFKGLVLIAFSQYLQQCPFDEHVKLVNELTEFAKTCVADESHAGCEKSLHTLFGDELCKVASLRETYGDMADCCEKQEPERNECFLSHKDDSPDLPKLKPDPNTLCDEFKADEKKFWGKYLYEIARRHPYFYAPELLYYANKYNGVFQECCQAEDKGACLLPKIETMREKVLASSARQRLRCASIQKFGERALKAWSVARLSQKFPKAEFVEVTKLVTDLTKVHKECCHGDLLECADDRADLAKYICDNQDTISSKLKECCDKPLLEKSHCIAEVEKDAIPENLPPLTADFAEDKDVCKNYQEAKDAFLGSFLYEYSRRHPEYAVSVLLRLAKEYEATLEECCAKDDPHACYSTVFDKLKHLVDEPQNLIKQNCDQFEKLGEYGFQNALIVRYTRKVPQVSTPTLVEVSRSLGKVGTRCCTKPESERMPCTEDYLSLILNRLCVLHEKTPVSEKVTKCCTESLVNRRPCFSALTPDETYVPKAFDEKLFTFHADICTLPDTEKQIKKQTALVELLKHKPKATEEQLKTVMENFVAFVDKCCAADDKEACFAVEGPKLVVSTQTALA
Protocol: as §1, §2

Factor Xa [3] = target: T3, Factor Xa (UniProt P00742;P00742 P00742:41-179,P00742:235-488); test: EMSA; 37 C 1 h
T3 sequence (P00742 41-179, chain 1 of 2): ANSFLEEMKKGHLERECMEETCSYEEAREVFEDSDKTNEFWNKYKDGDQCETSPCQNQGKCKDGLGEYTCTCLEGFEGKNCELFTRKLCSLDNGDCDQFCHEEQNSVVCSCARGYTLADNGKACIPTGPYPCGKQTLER
T3 sequence (P00742 235-488, chain 2 of 2): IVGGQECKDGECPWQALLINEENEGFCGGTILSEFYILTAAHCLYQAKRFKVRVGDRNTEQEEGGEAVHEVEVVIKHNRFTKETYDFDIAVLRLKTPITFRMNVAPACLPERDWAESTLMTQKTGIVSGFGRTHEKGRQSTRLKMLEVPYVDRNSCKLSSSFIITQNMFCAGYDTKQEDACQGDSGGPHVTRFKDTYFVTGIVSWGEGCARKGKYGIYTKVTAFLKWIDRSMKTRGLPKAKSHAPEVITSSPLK
Protocol: as §1, §2

Thrombin [4] = target: T4, Thrombin (UniProt P00734;P00734 P00734:328-363,P00734:364-622); test: EMSA; 5 pmol RNA + 25 pmol protein, 37 C 1 h
Factor IXa [5] = target: T1, Factor IXa; test: EMSA; 5 pmol RNA + 25 pmol protein, 37 C 1 h; conditions: 2-helix RNA origami with tetraloops and 180 degree kissing loop, no aptamer
Protocol: as §1, §2

[6] = target: T2, Bovine serum albumin (BSA); test: EMSA; 5 pmol RNA + 25 pmol protein, 37 C 1 h; conditions: 2-helix RNA origami with tetraloops and 180 degree kissing loop, no aptamer
Protocol: as §1, §2

Factor Xa [7] = target: T3, Factor Xa; test: EMSA; 5 pmol RNA + 25 pmol protein, 37 C 1 h; conditions: 2-helix RNA origami with tetraloops and 180 degree kissing loop, no aptamer
Protocol: as §1, §2

Thrombin [8] = target: T4, Thrombin; test: EMSA; 5 pmol RNA + 25 pmol protein, 1x annealing buffer, 37 C 1 h, 6% native PAGE
[9] = 2-helix RNA origami with exosite 1 and exosite 2 aptamers
[10] = 2-helix RNA origami with exosite 1 aptamer (RNAR9D-14T) and exosite 2 aptamer (Toggle-25t)
[11] = two aptamers (exosite 2 and exosite 1) joined by 31 nt single-stranded linker

Binder	binding result (Factor IXa [1]; [9])	binding result [2, 9]	binding result (Factor Xa [3]; [9])	binding result (Thrombin [4])	also measured
B1	no binding	no binding	no binding	binds	–
B2	no binding	no binding	no binding	binds	–
B3	–	–	–	binds	binding result (Factor IXa [1]; [10]): no binding; binding result [2, 10]: no binding; binding result (Factor Xa [3]; [10]): no binding
B4	–	–	–	binds	binding result (Factor IXa [1]; [11]): no binding; binding result [2, 11]: no binding; binding result (Factor Xa [3]; [11]): no binding
B5	–	–	–	–	binding result (Factor IXa [5]): no binding; binding result [6]: no binding; binding result (Factor Xa [7]): no binding; binding result (Thrombin [8]): no binding
